Test [1] addresses C-reactive protein (CRP), human, purified (Sigma) (human) (UniProt P02741). Briefly: SPR; BIAcore 2000; POPC on HPA chip, 200 nM CRP injected and captured, then L-rFBG injected at 30 ul/min; normal condition: 50 mM Tris, 145 mM NaCl, 2.5 mM calcium, pH 7.4. For orientation: SPR reads the build-up and loss of mass on a sensor chip optically.
The target is the same in test [2]. Description: SPR; BIAcore 2000; POPC on HPA chip, 200 nM CRP injected and captured, then L-rFBG injected at 30 ul/min; infection-inflammation condition: 50 mM MES, 145 mM NaCl, 2 mM calcium, pH 6.5.

Chain of C-reactive protein (CRP), human, purified (Sigma) (human) (P02741 19-224): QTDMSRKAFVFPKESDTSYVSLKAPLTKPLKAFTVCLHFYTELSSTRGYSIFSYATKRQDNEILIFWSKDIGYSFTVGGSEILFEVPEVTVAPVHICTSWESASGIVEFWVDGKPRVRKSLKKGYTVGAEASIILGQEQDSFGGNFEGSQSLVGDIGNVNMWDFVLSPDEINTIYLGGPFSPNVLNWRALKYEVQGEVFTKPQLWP

On to “recombinant FBG domain of L-ficolin (L-rFBG) (domain or fragment)”, for which the Kd was found to be 1.11 µM in test [1] and 0.0126 µM in test [2].

Broadly, the Kd is a measure of binding affinity in units of concentration.

The values above are taken from paper PMC2629585.
